# The RNAGym collection of RNA variant scans (doi:10.1073/pnas.2313332121)
# Fewer inactive variants are shown than the library holds.
# B1: TPR 5TU (parent)
# chain: GGAUCUUCUCGAUCUAACAAAAAAGACAAAUCUGCCACAAAGCUUGAGAGCAUCUUCGGAUGCAGAGGCGGCAGCCUUCGGUGGCGCGAUAGCGCCAACGUUCUCAACUAUGACACGCAAAACGCGUGCUCCGUUGAAUGGAGUUUAUCAUG
# Variants of: B1
# Assay: polymerase ribozyme fitness, log enrichment relative to wild type (log ratio); higher = more active; in vitro selection for triplet polymerase activity
# Procedure, shortened: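 Mutant libraries were PCR-built and transcribed for each subunit of a heterodimeric triplet polymerase ribozyme and selected for one round in triplicate at −7 °C, frozen, before gel excision of extended constructs and streptavidin-bead capture. Input and output libraries were Illumina-sequenced, keeping genotypes with ≥10 input reads and ≥1 read per output. Fitness is a logarithmic ratio of genotype to wild-type enrichment, in base 2, using inverse-variance-weighted replicate averages.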
row,Variant,polymerase ribozyme fitness (log ratio)
1,G126A G140A,-3.54
2,G124U G136A,0.382
3,C108G G143C A147C,≤ -4.2
4,A121G U127C,-2.42
5,U134C U144G,0.895
6,C105U G124U,-0.374
7,A137U U145A A147C,≤ -4.2
8,C114A G140A U148G,≤ -4.2
9,C114U A122G,-1.87
10,A110G U134G,-4.07
11,A107G A121U,-4.18
12,C114G G124C,-4.13
13,U109G C125U C129U,-4.06
14,A121G U135A,-0.777
15,C125U U146G,-1.15
16,U139G C149G,-3.88
17,A113U C116U,-1.33
18,A115G U146A,-1.38
19,A119U G140U,-3.25
20,G128A G133U,-4
21,C116U U145C U148C,-2.77
22,G141C G143C,≤ -4.2
23,A119G C125A,0.204
24,U146C U151G,≤ -4.2
25,U144C U145C,-0.39

row,Variant,polymerase ribozyme fitness (log ratio)
1,U109G A110C,≤ -4.2
2,A115U G136A,-1.18
3,A121G A122C A137C,-4.06
4,A107U U109G,≤ -4.2
5,C105G,-0.829
6,C105U,0.527
7,C105A,-0.411
8,U135C U145C,-2.51
9,C132U U139G G140A,1.22
10,A119U U139C,-3.94
11,C125G,-0.473
12,C125A,-0.171
13,C125U,-0.476
14,U127G U134C,-3.03
15,A106U U135A A150U,-1.22
16,C103G U130A,-4.04
17,C105U U135A,0.0587
18,A119U G126A,0.174
19,G126U U135C,-1.61
20,C116U U146A,-0.753
21,C105U A106C,0.388
22,C105U A120G A122C,0.479
23,A115G G124C C132G A137U,≤ -4.2
24,C131A A138C U139G,-3.67
25,A107C A142C,-4.05

row,Variant,polymerase ribozyme fitness (log ratio)
1,C116U U151C,-4.04
2,A113G A147C,-2.73
3,U109G U139C A142U,-3.41
4,U135G A137U U139A U151G,≤ -4.2
5,U104C C116G,0.144
6,U144A,-0.043
7,U144C,0.0778
8,U144G,0.948
9,A122G U139C,-4.09
10,U127A G128U,-3.18
11,C118G A142G,-1.54
12,A115C G124U U144G,-3.11
13,U135C U151A,≤ -4.2
14,U109G A115U C125A,-4.05
15,C125U U145C,-0.634
16,C125U G143U,-3.2
17,G126A C132U,-0.105
18,G124C G143U,-3.2
19,U127G G140A,-4.15
20,A138C U144G,-3.7
21,A119U U134A,-2.99
22,C123A C132G,-3.17
23,C103G G143U,≤ -4.2
24,A107C C116G,-3.74
25,A115U C118A,-1.83

row,Variant,polymerase ribozyme fitness (log ratio)
1,C103U U134A,-2.39
2,G117U G143A,-0.982
3,G140C U144G,-3.51
4,A107G G143U,-3.81
5,C149U A150G,-2.95
6,G124C G136A,-2.84
7,A121U G143C,-1.7
8,U104G C118A A122C,-2.35
9,C116A U148C,-3.09
10,U109A G124A G140C,≤ -4.2
11,A119U G126A U135C G141C,-3.75
12,A147C,0.176
13,A147U,1.1
14,A147G,-0.913
15,C118G,-1.01
16,C118A,-0.751
17,C118U,-0.256
18,A147U U148A,-2.81
19,C116A G140U,-4.02
20,G126A G133C U146C,-2.5
21,C118U A120G G143C,-2.13
22,C105A C125A,-3.83
23,C108U C114U,-4.06
24,C123A G141C,0.333
25,G143A U145A,-2.03

row,Variant,polymerase ribozyme fitness (log ratio)
1,A121G U144C,-0.191
2,A107G G141A,-2.72
3,A107G G141C,-3.86
4,C132U U145G,-0.815
5,U104C A106G,-0.701
6,G126A A142C,-3.28
7,G133U U148G,-4.1
8,C105U A138U,-2.82
9,U134A A142G U144G,-2.83
10,G152A,-1.77
11,G152C,-2.58
12,G152U,-2.19
13,C105U G140A,-2.92
14,A121C C123A U127C,-1.91
15,G126A A138C,-3.73
16,C114U U139C,-3.63
17,G117U U135C,-2.36
18,A137G G141C,-2.74
19,G133U U135A U139G U144G A150U,-4.1
20,A110C A121U,-4.04
21,A107G G140U U151A,≤ -4.2
22,A119U A121G U135C U146A A150G,-3.77
23,A121G,-0.0563
24,A121C,0.117
25,A121U,-0.0614

row,Variant,polymerase ribozyme fitness (log ratio)
1,A106G A113U U135G,≤ -4.2
2,U104A G143A,-1.63
3,A106G A120U A121G A122G G143C,-2.43
4,C125U U148G,≤ -4.2
5,C125G U127A,-3.68
6,G136U G143C,-3.26
7,G128A,-2.74
8,G128U,-2.53
9,G128C,-2.21
10,C125G A142C,-4.01
11,U109A U151A,≤ -4.2
12,G124C,-0.922
13,G124A,-0.246
14,G124U,-0.432
15,C114A C132U G133C,-3.96
16,A121G G141U C149U,-3.72
17,C105A U135C,-2.39
18,G141A A147C,-3.63
19,C116G G124C U148C,≤ -4.2
20,A120C G141C,-0.144
21,C125U U134A,-1.89
22,C108A A121U,≤ -4.2
23,C114U U151C,≤ -4.2
24,C114U U151G,-4.08
25,C105A G140U,-4.11

row,Variant,polymerase ribozyme fitness (log ratio)
1,C129G G143A,-2.23
2,G124U G140A,-4
3,U135C,-1.38
4,U135G,-3.19
5,U135A,-0.939
6,U104G A142G G152U,-3.73
7,C125A U146G,-0.126
8,C125A U146C,-0.394
9,G140A G141A,-3.15
10,A107U U135C,-4.04
11,G133C U144C C149U,-3.98
12,C125A U134C U148A G152A,-4.13
13,G117C,0.422
14,G117U,-0.0156
15,G117A,0.231
16,U144A U145A,-0.541
17,G143U G152A,-3.69
18,U130A,-1.66
19,U130G,-2.99
20,U130C,1.27
21,C131U U148C,-2.73
22,G126U C149U,-1.96
23,G128A G136A,-4.18
24,G141U U146A,0.37
25,C125A U148C,-3.48

row,Variant,polymerase ribozyme fitness (log ratio)
1,C125A U148A,-3.93
2,C114U G124U,-3.13
3,C114U G124C,-4.11
4,A121C A137U A147G,≤ -4.2
5,A113U G117U,-2.07
6,C116A A142C,-3.92
7,U104G A120C,0.532
8,C105G G141C,-2.56
9,C118U A119U,-0.842
10,C131G G133U,-3.77
11,A138C A142G,-3.66
12,U134A G140A,-3.58
13,G112A U148C,-4.13
14,U127C U139C U151G,≤ -4.2
15,G143C U146A,-3.65
16,U127G A147U,-3.92
17,C118U A142G U148C,-2.86
18,U134C,0.0692
19,U134G,-2.37
20,U134A,-2.25
21,G140U G141C,-3.07
22,C132G G133U,-2.9
23,A107U G141C,-3.87
24,G124U U134G,-2.98
25,A137U U144G,-4.2

row,Variant,polymerase ribozyme fitness (log ratio)
1,A107U C118G A147U C149G U151G,≤ -4.2
2,A110G C149G,-3.83
3,A110C G136U,≤ -4.2
4,A121G G143A A147U,-1.46
5,C114U A137C,-3.52
6,G136C U146C,-2.93
7,C116U G141U,1.29
8,C108U G136U,-3.41
9,C108U G133U,-3.96
10,C103U,-0.357
11,G140U U144C,-3.28
12,G133U U135G,-4.04
13,U104G A113U U127A G141A,≤ -4.2
14,U111A G124A U135C,-3.76
15,A113C U148C,-3.73
16,U146C A150U,0.851
17,A122G G143A,-1.03
18,U109C C114U,-3.87
19,C105A C129G,≤ -4.2
20,A120U U135C,-2.85
21,G143A,-0.315
22,G143C,-1.78
23,G143U,-1.84
24,U104C G124U C125A G143U,-3.85
